Experiment: yeast display, Sf9 membrane polyspecificity reagent, FACS + sequencing; frameworks hold sequencing errors
Summary of the method: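 Galactose induction of a Saccharomyces cerevisiae BJ5465 synthetic nanobody display library ran 36–48 hours. The cells were then stained for 1 hour at 4 °C with 10% biotinylated, detergent-solubilized Sf9 membrane reagent, pulled down on streptavidin microbeads and FACS-sorted into low and high (top ~1%) gates on expression and reagent-binding fluorescence. Labels for polyreactivity follow the gate of origin.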

| Sequence | polyreactivity (PSR sort gate) |
| --- | --- |
| QVQLVESVVGLVQAGGSLRLSSAASGGTFDLYAMGWYRQAPGKERELVAAISRRGSSTYYADSVKGRFTISRDNAKNTVYLQMTSLKPEDTAVYFCNNRYYWHGINEYWGQGTQVTVSS | high polyreactivity |
| QVQLVESGGGLVQAGGILRLSCAASGITFRYYAMGWYRQAPGKERELVAAITGNGGGTYADSVKGRFTISRDTAKYTGYLQMNSLKPEVTAVNYCSADYGRRWGYDYWGQGTQVTVSS | low polyreactivity |
| QVQLVESGGGLVQAGGSLRLSCAASGSTFALYAMGWYRQAPGKERELVAAISRSGSSTYYADSVKGRFTMSRDNAKNTVYLQMNSLKPEDTAVYYCATTISGLTSRLYYWGQGTQVTVSS | high polyreactivity |
| QVQLVESGGGLVQAGGSLRLSCAASGRTFQRNAMGWYRQAPGKERELVAAITTGSRTYYADSVKGRFTISRDNAKNTVYLQMNSLKPEDTAFYYCAAVATRRDYGYWGQGTQVTVLS | high polyreactivity |
| QVQLVESGGGLVQAGGSLRLSCAASGSISSAYGMGWYIQAPGKERELVATITSGGSTNYADSVKGRFTISRDNAKNTVYLQMNSLTPEDTAVYYCAVDRYALYSGGDYWGQGTQVTVSS | low polyreactivity |
| QVQLVESGGGLVQAGGSLRLRCASSGSIFHRNAMGWYRQAPGKERELVATITSNGGSTYYADSVKGRFTISRDNAKNTVFLHMNRLKPEDTAVYFCARKYRSPISALLTGDYWGQGTEVTVSS | low polyreactivity |
| QVQLVESGGGLVQAGGSLRLSCAASGSTFSHYTMGSYRQAAGKERELVAAITRSGGSTYYADSVKGRFTISRDNAKNTVYLQMNSLKTEDSAVYYSAATRHWNILRYDYWGQGTQVTVSS | low polyreactivity |
| QVQLVESGGGLVQAGGSLRLSCAASGRTFYSYAMGWYRQAPGKEREWVATITNGDTTNYADSVKGRFTISRDNAKNTVYLQMNSLKPEDTAVYYCAKDISPGYDEYDYWGQGTQVTVSS | low polyreactivity |
| QVQLVESGGGLVQAGGSLRLSCAASGLIFYVYAMGWYRQAPGKERELVADISTAGGITNYADSVKGRFTISRDNAKNTVYLQMNSLKPEDTAVYYCAATQPWYNTRTRYGSWGQGTQVTVSS | low polyreactivity |
| QVQLVESGGGLVQAGGSLRLSCAASGSTFSSYAMGWYRQAPGKERELVAATYYADSVKGRFTISRDNAKNTVYLQMNSLKPEDTAVYYCNADNAYQGGKEYDYWGQGTQVTVSS | low polyreactivity |
| QVQLVESGGGLVQAGGSLRLSCAASGLIFSDNAMGWYRQARGKEREFVASISDSGTTTYYADSVKGRFTISRDNAKNTVYLQMNSLKPEDTAVYDCNARPGQSGARFGYWGQGTQVTVSS | high polyreactivity |
| QVQLVESGGGLVQAGGSLRLSCDASGSIIRYYAMGWYRQAPGKERELVAAINSLGGTTYYADSVKGRFTISRDNAKNTVYLQMNSLKPEDTAVYYCAAGYPPLHTSVQQTAHYGLDYCGQGTQVTVSS | high polyreactivity |
| QVQLVESGGGLVQAGGSLRLSCAASGSTFGGYAMGWYRQAPGKERELVAAISQSGTRSYYADSVKGRFTISRDNAKNTVYLQMNSLKPEDTAVYYCAAEKRFRKYDYWGQGTQVTVSS | high polyreactivity |
| QVQLVESGGGLVQAGGSLRLSCAASGSTFDYYAMGWSRQAPGKERELVAAITGTGGSTYYADSEKGRFTISRNNAKNTVYLQMNSLKPEDTAVYYCNRVSGTRRHTMDYWGQGTQVTVSS | low polyreactivity |
| QVQLVESGGGLVQAGGSLRLSCAASGRILYYYAMGWYRQAPGKERELVAAINSSGGSTYYADSVKGRFTISRDNAKNTVYLQMNSLKPEDTAVYYCAALRGIVLWYPPSYFRYDYWGQGTQVTVSS | high polyreactivity |
| QVQLVESGGGLVQAGGTLRLSCAASGSTFVRNAMGWYRQPPGKERELVAAISVDGSSTYYADSVKGRFTISRDNAKNTVYLQMNSLKPEDTAVYYCNADWDYRDFYDITYDYWGQGTQVTVSS | low polyreactivity |

| Sequence | polyreactivity (PSR sort gate) |
| --- | --- |
| QVQLVESGGGLVHEGGSLRLSCAASGRLFKSYAMGWYRQAPVKERELVAAISRSGGRTYYADSVKGRFTISRDNAKNTVYLQMNSLKPEDTAVYYCAATTFVAPYWGQGTQVTVSS | low polyreactivity |
| QVQLVESGGGLVQAGGSLRLSCAASGRTFYNYAMGWYRQAPGKERELVASIRKNGGSTYYADSVKGRFTISRDNAKNTVYLQMNSLKPEDTAVYYCAARYWGISRIFPSKYDYWGQGTQVTVSS | high polyreactivity |
| QVQLVESGGGLVQAGGSLRLSCAASGSTFRYYAMGWYRQAPGKERELVAAITRSGGSTSYADSVKGRFTISRDNAKNTVYLQMNSLKPEDTAVYYCAARFYRPYYARQGYNYWGQGTQVTVSS | high polyreactivity |
| QVQLVESGGGLVQAGGSLRLSCAASGFTFRRYVMGWYRQAPGKERELVAAISQRGGSTYYADSVKGRFTISRDNAKNTVYLQMNSLKPEDTAVYYCNIDYAGELDYWGQGTQVTVSS | high polyreactivity |
| QVQLVESAGGLVQAGGSLRLSCAASGRIFSTYAMGWYRQAPGKERELVAAISWRGSSTYYADSVKGRFTISRDHAKNTVYLQMNSLKPEDTAVYYCNADKANRYDWGQGTQVTVSS | high polyreactivity |
| QVQIEESGGVLVQAGGSLRLSCAASGSIFQPYALGWYRQAPGKERELVAAISSSGGSTTYADSVKGRFTISRDIAKNTVYLQMNSLKPEDTAVYYCAADSADDMGYWGQGTQVTVSS | low polyreactivity |
| QVQLVESGGGLVQAGGSLRFSCAASGSIFQHYAMGWYRQAPGKERELVAAISWSGGSTYYADSVKGRFSISRDNAKNTVYLQMNSLKPEDTAVYYCAATKRRFVKFDYWGQGTQVTVSS | low polyreactivity |
| QVQHVESGGGLVQAGGSLRLSCAASGRIFVPYGMGWYRQAPGKERELVAAISLRGGTTYYADSVKGRFTISRDNAKNTVYLQMNSLKPEDTAVYYCAARGYVSVWRPYHWFVAGDYWGQGTQVTVSS | high polyreactivity |
| QVQLVESGAGLVQAGGSLRLSCAASGRIVYYVMGWYRQAPAKEMELVAAISTRGGSTYYADSVKGRFTISRDNAKNTVYLQINSLKPEDTAVYYCAASSLLTRFNSWGQGTQVTVSS | high polyreactivity |
| QVQHVESGGGLVQAGGSLRLSCAASGYTFPLYAMGWYRQAPGKEREFVAAISKRSGTTYYADSVKGRFTISRDNAKNTVYLQMNSLKPEDTAVYYCNAGYSVYNQRFGYWGQGTQVTVSS | high polyreactivity |
| QVQLVESGGCLVQAGGSLRLSCAATGSTLGSYAMGWYRQAPGKERELVAAITFLGGSTYYADSVKGRFTSSRDNAKNTVYLQMNSLKPEDSAVYYCAARFLRVLFNLVFIYDYWGQGSQVTVSS | high polyreactivity |
| QVHLVESGGGLVLAGGSLRLSCAASGRIFSFYAMGWYRQAPGKERELVAAISSGGNTYYADSLKGRFTISRDNAKNTVYLQMNSLKPEDTAVYYCATGYRNLSSRYGYWGQGTQVSVSS | high polyreactivity |
| QVQLVESGGGLVQAGGRLRLSCAASGRIFVYNAMGWYRQAPGKERELVAAINYRGTRTYYADSVKGRFTISRDNAKNTVYLQLNSLKPEDTAVYYCATYLVTGGGLNVRYDYWGQGTQVTVSS | high polyreactivity |
| QVQLVESGGGLVQAGGSLRLSCAASGRIFDVNAMGWYRQAPGKERELVAAIRSGGRTNYADSVNGRFTISRDNAKNTVYLQMNSLKPEDTAVYYCAAVVWSSLDDYWGQGTQVTVSS | high polyreactivity |
| QVQLVESGGGLVQAGGSLRLICAASGRTFATYAMGWYRQAPGKERELVAAISNSGGRTNYADSVKGRFTISRDNAKNTVYLLMNSLKPEDTAVFYCATKAYTSGRYYWGQGTQVTVSS | high polyreactivity |
| QVQLVESGGGLVQAGGSLRLSCAASGITFPRYAMGWYRQAPGKERELVATITRSGGGTYYADSVKGRFTISRDNAKNTVNLQMNSLKPEDTAVYYCAAGALQRGVYGYGYWGQGTQVTVSS | high polyreactivity |

— the nanobody polyreactivity screen of Harvey et al. (2022)
